How the values were obtained:
C3dg = target: T1, C3dg (UniProt P01024 955-1303); test: SPR (Biacore 2000), analyte over C3dg surface on CM5 chip
T1 construct: Made on the chip from deposited C3b with FI and the cofactor sCR1
Experimental: (§1) C3-fragment binding. Equal amounts of C3b (˜4000 RUs) (from Complement Technology, Tyler, Tex., USA) were immobilized onto 3 flow-cells (fc) of a CM5 chip (Biacore) by initial amine-coupling of a small amount of C3b onto fc 2-4 and further deposition of the vast majority of C3b molecules via its reactive thioester through an on-chip assembly of the AP-convertase (C3bBb) and subsequent exposure to and proteolytic activation of C3 (24). The surface was washed overnight with a buffer flow of 10 ul/min to allow stabilization of the physiologically prepared C3b-surface. […] C3b molecules on fc3 and fc4 were processed with FI in the presence of the cofactors FH or soluble complement receptor 1 (sCR1) to yield iC3b or C3dg (the latter as described in Morgan et al., 2011, supra), respectively. A dummy surface (fc1) was prepared by two consecutive cycles of surface activation with standard amine coupling reagents and quenching by ethanolamine.
(§2) Due to the physiological deposition of C3b and subsequent trimming with FI, both, the iC3b and the C3dg, surfaces likely carry miniscule amounts of residual C3b molecules, which were not readily accessible by FI. […] Deposition, proteolytic processing and all interactions studies were performed in HBS-P+buffer (i.e. 10 mM HEPES-buffered 150 mM saline (pH7.4), 0.005% (v/v) surfactant p20, 1 mM MgCl₂) at 25° C.

iC3b = target: T2, iC3b (UniProt P01024 23-667; P01024 749-1303; P01024 1321-1663); test: SPR (Biacore 2000), analyte over iC3b surface on CM5 chip
T2 construct: Made on the chip from deposited C3b with FI and the cofactor FH
Experimental: as §1, §2

C3b = target: T3, C3b (UniProt P01024 749-1663; P01024 23-667); test: SPR (Biacore 2000), analyte over C3b deposited on CM5 chip
T3 construct: Immobilised on a CM5 chip; A small amount was amine-coupled and the majority deposited via the reactive thioester by on-chip AP convertase; also called complement fragment C3b; deposited C3b
Experimental: as §1, §2

Measured: binding result

T3 sequence (P01024 749-1663 limits assumed, chain 1 of 2): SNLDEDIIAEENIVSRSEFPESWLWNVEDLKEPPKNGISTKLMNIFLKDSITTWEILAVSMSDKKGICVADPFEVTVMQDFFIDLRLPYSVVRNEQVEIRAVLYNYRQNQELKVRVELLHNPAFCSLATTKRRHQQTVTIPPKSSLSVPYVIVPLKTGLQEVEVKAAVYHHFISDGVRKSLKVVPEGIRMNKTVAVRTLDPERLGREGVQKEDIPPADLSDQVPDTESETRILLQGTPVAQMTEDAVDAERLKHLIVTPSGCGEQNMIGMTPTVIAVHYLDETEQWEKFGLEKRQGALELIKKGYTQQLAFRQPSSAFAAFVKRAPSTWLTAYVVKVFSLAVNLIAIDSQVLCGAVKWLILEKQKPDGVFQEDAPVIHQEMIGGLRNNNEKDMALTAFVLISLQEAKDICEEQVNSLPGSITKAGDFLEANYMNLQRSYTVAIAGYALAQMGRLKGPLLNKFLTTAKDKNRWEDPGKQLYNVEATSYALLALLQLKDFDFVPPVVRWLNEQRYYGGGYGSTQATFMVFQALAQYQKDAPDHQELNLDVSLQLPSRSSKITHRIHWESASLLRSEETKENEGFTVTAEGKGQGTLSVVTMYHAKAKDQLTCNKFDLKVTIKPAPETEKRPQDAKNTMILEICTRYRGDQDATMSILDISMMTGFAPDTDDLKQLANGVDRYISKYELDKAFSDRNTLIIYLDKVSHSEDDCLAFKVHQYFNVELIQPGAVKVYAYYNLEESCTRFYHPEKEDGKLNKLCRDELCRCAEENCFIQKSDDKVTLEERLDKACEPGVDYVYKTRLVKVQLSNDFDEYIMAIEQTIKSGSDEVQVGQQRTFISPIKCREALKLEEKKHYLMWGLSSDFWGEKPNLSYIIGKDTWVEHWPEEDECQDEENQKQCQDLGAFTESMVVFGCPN
T3 sequence (P01024 23-667 limits assumed, chain 2 of 2): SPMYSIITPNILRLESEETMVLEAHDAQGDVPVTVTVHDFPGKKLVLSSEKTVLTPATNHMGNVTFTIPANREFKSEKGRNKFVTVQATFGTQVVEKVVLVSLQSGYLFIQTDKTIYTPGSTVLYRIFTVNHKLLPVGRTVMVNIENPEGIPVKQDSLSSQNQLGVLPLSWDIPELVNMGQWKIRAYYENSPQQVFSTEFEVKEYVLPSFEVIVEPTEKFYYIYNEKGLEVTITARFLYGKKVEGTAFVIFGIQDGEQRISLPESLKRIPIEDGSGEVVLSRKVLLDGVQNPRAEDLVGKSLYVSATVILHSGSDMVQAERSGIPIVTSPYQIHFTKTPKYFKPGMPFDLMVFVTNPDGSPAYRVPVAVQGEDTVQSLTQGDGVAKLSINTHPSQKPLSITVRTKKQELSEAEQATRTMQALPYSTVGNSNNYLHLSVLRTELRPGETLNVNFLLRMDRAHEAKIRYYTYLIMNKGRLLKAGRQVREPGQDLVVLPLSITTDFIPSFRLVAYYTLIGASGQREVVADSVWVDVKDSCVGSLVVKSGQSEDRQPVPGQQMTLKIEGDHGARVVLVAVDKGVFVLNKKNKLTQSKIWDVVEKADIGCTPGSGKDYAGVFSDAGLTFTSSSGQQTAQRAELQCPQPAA
T1 sequence (P01024 955-1303 limits assumed): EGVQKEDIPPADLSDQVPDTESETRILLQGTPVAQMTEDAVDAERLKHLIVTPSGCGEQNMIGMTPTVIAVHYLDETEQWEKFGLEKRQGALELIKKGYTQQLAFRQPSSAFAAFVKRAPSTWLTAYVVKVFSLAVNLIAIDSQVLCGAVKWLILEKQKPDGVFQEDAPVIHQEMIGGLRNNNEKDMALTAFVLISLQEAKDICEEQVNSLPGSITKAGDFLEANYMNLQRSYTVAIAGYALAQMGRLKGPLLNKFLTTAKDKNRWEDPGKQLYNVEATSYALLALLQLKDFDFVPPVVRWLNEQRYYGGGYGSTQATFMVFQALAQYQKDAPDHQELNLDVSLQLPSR
T2 sequence (P01024 23-667, chain 1 of 3): as the sequence (P01024 23-667 limits assumed, chain 2 of 2) above
T2 sequence (P01024 749-1303, chain 2 of 3): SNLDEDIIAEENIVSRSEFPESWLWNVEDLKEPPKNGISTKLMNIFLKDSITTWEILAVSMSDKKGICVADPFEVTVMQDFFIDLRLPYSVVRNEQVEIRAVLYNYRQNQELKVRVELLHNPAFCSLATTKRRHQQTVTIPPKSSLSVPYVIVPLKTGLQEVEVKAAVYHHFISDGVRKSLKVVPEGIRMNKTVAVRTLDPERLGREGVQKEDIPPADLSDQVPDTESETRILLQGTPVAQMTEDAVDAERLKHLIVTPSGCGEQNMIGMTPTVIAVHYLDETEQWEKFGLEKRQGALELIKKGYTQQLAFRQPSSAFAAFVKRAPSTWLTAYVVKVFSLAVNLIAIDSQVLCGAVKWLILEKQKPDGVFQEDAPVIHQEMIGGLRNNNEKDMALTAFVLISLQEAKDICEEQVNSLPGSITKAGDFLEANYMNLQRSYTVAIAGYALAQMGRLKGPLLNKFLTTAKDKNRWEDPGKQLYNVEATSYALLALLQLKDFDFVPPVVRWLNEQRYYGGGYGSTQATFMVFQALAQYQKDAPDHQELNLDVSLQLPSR
T2 sequence (P01024 1321-1663, chain 3 of 3): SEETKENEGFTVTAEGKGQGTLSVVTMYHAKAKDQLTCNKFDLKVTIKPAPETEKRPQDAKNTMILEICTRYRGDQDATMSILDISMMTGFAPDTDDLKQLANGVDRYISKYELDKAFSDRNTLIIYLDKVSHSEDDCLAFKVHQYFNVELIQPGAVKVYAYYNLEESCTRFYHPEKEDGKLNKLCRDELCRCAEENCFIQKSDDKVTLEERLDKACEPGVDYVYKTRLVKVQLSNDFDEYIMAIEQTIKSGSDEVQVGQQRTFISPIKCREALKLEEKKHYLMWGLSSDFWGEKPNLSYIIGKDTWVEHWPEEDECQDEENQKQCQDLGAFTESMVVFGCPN

B1: FH15-18 (other, UniProt P08603 868-1104, looked up)
chain: IPCSQPPQIEHGTINSSRSSQESYAHGTKLSYTCEGGFRISEENETTCYMGKWSSPPQCEGLPCKSPPEISHGVVAHMSDSYQYGEEVTYKCFEGFGIDGPAIAKCLGEKWSHPPSCIKTDCLSLPSFENAIPMGEKKDVYKAGEQVTYTCATYYKMDGASNVTCINSRWTGRPTCRDTSCVNPPTVQNAYIVSRQMSKYPSGERVRYQCRSPYEMFGDEEVMCLNGNWTEPPQCKD
notes: domain: CCPs 15-18; Negative control analyte in SPR
no binding: all assays above
